Measured values as given in patent US20160326219A1, “OPTICALLY ACTIVATED RECEPTORS” (IST AUSTRIA (INSTITUTE OF SCIENCE AND TECHNOLOGY AUSTRIA), priority 2013, published 2016).

How the values were obtained:
Type in all cases: cell-based, human
[1] = test system: mFGFR1-related signaling pathways; assay: Detection of additional signaling pathways, Cignal Reporter assays (HEK293 cells); conditions: ~3 μW/mm^2, FIG. 3
Experimental: Activation of additional mFGFR1-related signaling pathways was assayed with Cignal Reporter assays (Qiagen, Hilden, Germany) consisting of mixtures of inducible pathway focused transcription factor-responsive firefly luciferase constructs and a constitutively expressing Renilla luciferase construct. Cells were transfected with 100.3 ng total DNA per well (receptor and reporter at ratio of 1:300) using Lipofectamine 2000 and thereafter treated as described above for detection of MAPK signaling. Cells were processed with the Dual-Glo® Luciferase Assay System (Promega) and signals detected with the microplate reader.

M38K cells [2] = assay: Stimulation and Western blot (M38K cells); conditions: ~3 μW/mm^2
Text: (§1) M38K and SPC212, two malignant pleural mesothelioma cell lines, were maintained in RPMI1640 supplemented with 10% FBS. Telomerase-immortalized microvascular hBE cells were maintained in Clonetics EGM2 MV endothelial growth medium (Lonza, Wakersville, Md.) supplemented with 5% FBS. For retrovirus generation, Opto-mFGFR1 or mCherry as control was subcloned into pQCXIP (Clontech, Mountain View, Calif.) using EcoRI and NotI restriction enzymes. Viral particles were generated in HEK293 cells by co-transfection with the helper plasmids pVSV-G and p-gag-pol-gpt. Supernatants were used to transduce M38K, SPC212 or hBE cells grown to 50% confluency in 6-well plates. Cells were selected with 0.8 μg/ml puromycin for 10 d and transgene expression was verified by immunoblotting.
(§2) For immunoblotting, 5×10^5 cells were seeded in each well of 6-well plates. After 24 h, medium was replaced with reduced serum medium (M38K, SPC212). After additional 20 h, cells were transferred to the stimulation incubator and illuminated for 1, 5 or 15 min or shielded from light. Cells were then either immediately or after additional 5, 15 or 30 min in the dark washed and lysed in 50 μl lysis buffer per well on ice. Lysates were sonicated and centrifuged (12000 g, 5 min, 4° C.). […] Chemiluminescence was developed with WesternC reagent (Biorad, Hercules, Calif.) and signals recorded on X-ray film (GE Healthcare).

SPC212 cells = assay: Stimulation and Western blot (SPC212 cells); conditions: ~3 μW/mm^2
Text: as §1, §2

M38K cells [3] = assay: Cell proliferation, EdU incorporation (M38K cells)
Experimental: 2×10^4 M38K cells were seeded in each well of 96-well plates. After 24 h, cells were stimulated for 1 h or kept in the dark. FGF2 (Sigma, St. Louis, Mo.) was added as indicated. After 24 h, cells were incubated with 10 μM EdU for 2 h. Subsequently, newly synthesized DNA was stained with Click-iT EdU (Life Technologies) following the manufacturer's protocol and counterstained with 5 μg/ml Hoechst dye. Cells were photographed on a Nikon Ti300 inverted microscope. To determine the percentage of cells with newly synthesized DNA, Hoechst positive nuclei and EdU positive nuclei were counted.

M38K cells [4] = assay: Cell cycle distribution by flow cytometry (M38K cells)
Experimental: Cell cycle distribution was analyzed by flow cytometry. 5×10^5 M38K cells were seeded in 25 cm^2 tissue culture flasks. After 24 h, cells were stimulated for 1 h or kept in the dark. After additional 24 h, cells were fixed in ethanol (70%), treated with 50 μg/ml RNAse A and 50 μg/ml propidium iodide (PI). Flow cytometry was performed on a FACSCalibur (BD Biosciences, Schwechat, Austria) and cell cycle distribution calculated with ModFit LT software (Verity Software House, Topsham, Me.).

M38K cells [5] = assay: Gene expression analysis, qPCR (M38K cells)
Experimental: 5×10^4 M38K cells were seeded into each well of a 6-well plates. After 24 h, cells were illuminated with a cycle of 5 min light/15 min dark for 48 h. Control cells were kept in the dark. Total RNA was extracted with TRIZOL (LifeTechnologies) and reverse transcribed with MMLV reverse transcriptase (Thermo Scientific). cDNAs corresponding to 50 ng RNA per sample were subjected to SYBR green qPCR on an Abi Prism 7500 Sequence Detection System using published primers (cf. Sakuma, 2012; #2508). GAPDH was used for normalization and fold change of expression level was calculated as 2-ddCt of illuminated versus non-illuminated cells.

B1: Opto-mFGFR1: chimeric receptor of mFGFR1 intracellular domain and VfAU1-LOV, SEQ ID NO: 58 (protein)
chain: MGSSKSKPKDPSQRLDMKSGTKKSDFHSQMAVHKLAKSIPLRRQVTVSADSSASMNSGVLLVRPSRLSSSGTPMLAGVSEYELPEDPRWELPRDRLVLGKPLGEGCFGQVVLAEAIGLDKDKPNRVTKVAVKMLKSDATEKDLSDLISEMEMMKMIGKHKNIINLLGACTQDGPLYVIVEYASKGNLREYLQARRPPGLEYCYNPSHNPEEQLSSKDLVSCAYQVARGMEYLASKKCIHRDLAARNVLVTEDNVMKIADFGLARDIHHIDYYKKTTNGRLPVKWMAPEALFDRIYTHQSDVWSFGVLLWEIFTLGGSPYPGVPVEELFKLLKEGHRMDKPSNCTNELYMMMRDCWHAVPSQRPTFKQLVEDLDRIVALTSNQEYLDLSIPLDQYSPSFPDTRSSTCSSGEDSVFSHEPLPEEPCLPRHPTQLANSGLKRRVETGPDYSLVKALQMAQQNFVITDASLPDNPIVYASRGFLTLTGYSLDQILGRNCRFLQGPETDPRAVDKIRNAITKGVDTSVCLLNYRQDGTTFWNLFFVAGLRDSKGNIVNYVGVQSKVSEDYAKLLVNEQNIEYKGVRTSNMLRRKTGGSGVDYPYDVPDYALD
modifications: mFGFR1-VfAU1-LOV
Activation of additional pathways linked to mFGFR1 in response to blue light [1]: activates | Phosphorylation upon blue light stimulation (M38K cells [2]): rapid phosphorylation of Opto-mFGFR1 and ERK1/2 | Phosphorylation upon blue light stimulation (SPC212 cells): rapid phosphorylation of Opto-mFGFR1 and ERK1/2 as well as AKT and phospholipase Cy (PLCy) | Proliferation (% of nuclei incorporating 5-ethynyl-2'-deoxyuridine) upon light stimulation (M38K cells [3]): increased proliferation | Cell cycle distribution upon light stimulation (M38K cells [4]): a shift of cell cycle distribution towards the S-phase | Gene expression changes upon light stimulation (M38K cells [5]): EMT-like gene expression changes
